Broadly, the Kd is the concentration at which binding is half-saturated. As usually defined, the koff is the rate constant with which the complex falls apart. By kon is commonly meant the rate constant with which the complex forms.

The values that follow come from US20160222105A1 (MacroGenics, published 2016).

The target of one experiment is T1, human gpA33 (human, UniProt Q99795 22-235, limits assumed).
T1 construct: There it is printed only as gpA33; also called A33 antigen
T1 sequence (looked up): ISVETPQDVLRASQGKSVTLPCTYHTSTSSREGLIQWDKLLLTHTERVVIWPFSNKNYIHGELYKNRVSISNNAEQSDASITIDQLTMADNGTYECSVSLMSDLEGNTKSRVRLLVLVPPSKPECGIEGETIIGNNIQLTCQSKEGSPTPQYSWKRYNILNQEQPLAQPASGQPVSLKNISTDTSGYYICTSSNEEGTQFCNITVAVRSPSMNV
The experiment can be described thus: kinetics of binding to gpA33; method not stated.

Experiment [1] deals with T2, soluble cynomolgus monkey gpA33 with 6His (cynomolgus monkey, UniProt G7NU40 17-329).
T2 construct: range 1-314; The range 1-314 is as printed; also called cynogpA33-His
T2 sequence: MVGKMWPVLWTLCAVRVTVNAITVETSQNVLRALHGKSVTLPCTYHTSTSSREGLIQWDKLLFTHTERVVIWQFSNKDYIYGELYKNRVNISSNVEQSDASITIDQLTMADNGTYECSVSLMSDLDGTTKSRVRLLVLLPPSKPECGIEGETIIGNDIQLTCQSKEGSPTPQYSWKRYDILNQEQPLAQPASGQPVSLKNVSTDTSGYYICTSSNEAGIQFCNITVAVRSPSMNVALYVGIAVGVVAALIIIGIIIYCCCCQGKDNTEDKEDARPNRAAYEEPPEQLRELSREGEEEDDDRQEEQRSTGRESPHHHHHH
The experiment can be described thus: SPR (BIAcore 3000), captured gpA33-His, diabody as analyte, 1:1 Langmuir global fit. For orientation: Surface plasmon resonance follows binding to a sensor surface in real time, without labels.

The target in experiment [2] is T3, soluble human gpA33 with 6His (human, UniProt Q99795 22-235).
T3 construct: range 1-235; Expressed in CHO-S cells; The stated range starts at residue 1 and so includes the signal peptide; also called hgpA33-His
T3 sequence: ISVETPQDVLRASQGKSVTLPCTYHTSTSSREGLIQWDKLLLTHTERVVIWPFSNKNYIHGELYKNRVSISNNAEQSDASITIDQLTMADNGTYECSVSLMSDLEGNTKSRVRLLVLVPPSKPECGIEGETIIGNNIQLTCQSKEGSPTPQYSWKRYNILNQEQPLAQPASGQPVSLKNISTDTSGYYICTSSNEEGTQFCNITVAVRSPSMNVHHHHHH
Described as above.

Experiment [3] addresses T4, soluble human CD3ε/CD3δ heterodimer (human).
T4 construct: Co-expressed in CHO-S cells; also called hCD3ε/δ
T4 chain 1: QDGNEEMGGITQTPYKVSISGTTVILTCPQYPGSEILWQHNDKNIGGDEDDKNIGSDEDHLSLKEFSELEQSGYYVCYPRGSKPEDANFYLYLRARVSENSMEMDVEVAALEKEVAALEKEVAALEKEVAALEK
T4 chain 2: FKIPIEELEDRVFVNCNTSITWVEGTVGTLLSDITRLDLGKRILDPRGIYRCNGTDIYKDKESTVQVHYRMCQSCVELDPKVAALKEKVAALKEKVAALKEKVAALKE
The experiment can be described thus: SPR (BIAcore 3000), CD3 immobilized on CM5 chip, diabody as analyte, 1:1 Langmuir global fit. Here is the method: (§1) gpA33×CD3 bi-specific Fc diabody (DART-2 w/Fc Version 1) binding to soluble versions of human and cynomolgus monkey CD3 receptor was analyzed by SPR on a BIAcore 3000 biosensor (GE, Healthcare). Receptors were immobilized on the CM5 sensor chip according to the procedure recommended by the manufacturer. Briefly, the carboxyl groups on the sensor chip surface were activated with an injection of a solution containing 0.2M N-ethyl-N-(3dietylamino-propyl) carbodiimide and 0.05M N-hydroxy-succinimide. Soluble CD3 receptor (1 μg/ml) was then injected over the activated CM5 surface in 10 mM sodium-acetate, pH 5.0, at flow rate 5 μL/min, followed by 1 M ethanolamine for deactivation.
(§2) Binding experiments were performed in HBS-EP buffer, which contains 10 mM HEPES, pH 7.4, 150 mM NaCl, 3 mM EDTA and 0.005% P20 surfactant. Binding of DART-2 w/Fc Version 1 was analyzed (in duplicate) at concentrations of 0, 6.25, 12.5, 25, 50 and 100 nM, injected for 120 sec at a flow rate of 30 μL/min.
(§3) Regeneration of the immobilized receptor surfaces was performed by pulse injection of 10 mM glycine, pH 1.5. Reference curves were obtained by injection of each dilution of DART-2 w/Fc over the treated surface with no immobilized protein. Binding curves at zero concentration were subtracted as a blank. KD values were determined by a global fit of binding curves to the Langmuir 1:1 binding model (BIAevaluation™ software v4.1).

In experiment [4] the target is T5, soluble cynomolgus monkey CD3ε/CD3δ heterodimer (cynomolgus monkey).
T5 construct: Co-expressed in CHO-S cells; also called cynoCD3ε/δ
T5 chain 1: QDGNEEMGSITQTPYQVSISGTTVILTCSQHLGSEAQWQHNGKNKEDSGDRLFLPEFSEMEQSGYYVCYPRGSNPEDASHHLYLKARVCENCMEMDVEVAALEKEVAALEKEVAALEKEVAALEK
T5 chain 2: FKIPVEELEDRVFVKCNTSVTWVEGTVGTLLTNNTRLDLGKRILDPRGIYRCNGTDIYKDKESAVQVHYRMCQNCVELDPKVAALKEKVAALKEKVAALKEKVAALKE
The experiment is described as above. The method, then: as §1, §2, §3

Experiment [5] addresses T6, gpA33 on human cancer cells (human, UniProt Q99795 22-319).
T6 sequence (looked up): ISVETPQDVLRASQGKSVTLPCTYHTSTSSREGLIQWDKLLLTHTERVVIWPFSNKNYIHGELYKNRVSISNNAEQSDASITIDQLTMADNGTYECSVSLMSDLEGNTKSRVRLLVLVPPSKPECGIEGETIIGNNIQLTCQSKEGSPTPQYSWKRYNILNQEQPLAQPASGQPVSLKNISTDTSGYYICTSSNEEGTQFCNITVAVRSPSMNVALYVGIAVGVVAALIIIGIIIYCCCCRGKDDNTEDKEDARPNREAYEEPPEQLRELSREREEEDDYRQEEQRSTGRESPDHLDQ
The experiment is described as follows: cell-based or functional assay.

The target of experiment [6] is CD3 of cynomolgus monkey T cells (cynomolgus monkey, UniProt Q95LI5 22-198; Q95LI8 22-171). The experiment is described as follows: cell-based or functional assay.
Sequence of CD3 of cynomolgus monkey T cells (Q95LI5 22-198 limits assumed, chain 1 of 2): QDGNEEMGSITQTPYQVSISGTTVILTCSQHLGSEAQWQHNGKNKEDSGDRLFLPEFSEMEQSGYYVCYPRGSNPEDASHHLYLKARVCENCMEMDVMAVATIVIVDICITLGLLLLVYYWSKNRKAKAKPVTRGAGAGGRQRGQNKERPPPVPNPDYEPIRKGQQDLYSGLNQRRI
Sequence of CD3 of cynomolgus monkey T cells (Q95LI8 22-171 limits assumed, chain 2 of 2): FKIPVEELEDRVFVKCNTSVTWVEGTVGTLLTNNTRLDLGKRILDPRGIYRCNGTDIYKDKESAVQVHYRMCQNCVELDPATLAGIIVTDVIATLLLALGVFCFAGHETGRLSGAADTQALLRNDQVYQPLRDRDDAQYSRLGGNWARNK

B1: Murine mAb 1 (antibody, V domains shown)
VH: QVQLQQSGPELVKPGASVKISCKASGYTFSGSWMNWVKQRPGQGLEWIGRIYPGDGETNYNGKFKDKATLTADKSSTTAYMELSSLTSVDSAVYFCARIYGNNVYFDVWGAGTTVTVSS
VL: QIVLTQSPAIMSASPGERVTMTCSARSSISFMYWYQQKPGSSPRLLIYDTSNLASGVPVRFSGSGSGTSYSLTISRMEAEDAATYYCQQWSSYPLTFGSGTKLELK
notes: also called original murine anti-human gpA33 monoclonal antibody
The molecule B1 had a Kd in the experiment with human gpA33 of 2.3 nM.

B2: Chimeric mAb 1 (antibody, V domains shown)
VH: QVQLQQSGPELVKPGASVKISCKASGYTFSGSWMNWVKQRPGQGLEWIGRIYPGDGETNYNGKFKDKATLTADKSSTTAYMELSSLTSVDSAVYFCARIYGNNVYFDVWGAGTTVTVSS
VL: QIVLTQSPAIMSASPGERVTMTCSARSSISFMYWYQQKPGSSPRLLIYDTSNLASGVPVRFSGSGSGTSYSLTISRMEAEDAATYYCQQWSSYPLTFGSGTKLELK
notes: also called chimericized anti-human gpA33 antibody
In the case of B2, the Kd with human gpA33 was determined as 2.4 nM.

B3: Humanized mAb 1 (antibody, V domains shown)
VH: QVQLVQSGAEVKKPGASVKVSCKASGYTFTGSWMNWVRQAPGQGLEWIGRIYPGDGETNYNGKFKDRVTITADKSTSTAYMELSSLRSEDTAVYYCARIYGNNVYFDVWGQGTTVTVSS
VL: DIQLTQSPSFLSASVGDRVTITCSARSSISFMYWYQQKPGKAPKLLIYDTSNLASGVPSRFSGSGSGTEFTLTISSLEAEDAATYYCQQWSSYPLTFGQGTKLEIK
notes: also called humanized anti-human gpA33 antibody
The molecule B3 came in with a Kd in the experiment with human gpA33 of 3.4 nM.

B4: gpA33 × CD3 bi-specific monovalent diabody having an IgG Fc Domain version 1 (DART-2 w/Fc Version 1) (bispecific antibody)
chain 1: DIQLTQSPSFLSASVGDRVTITCSARSSISFMYWYQQKPGKAPKLLIYDTSNLASGVPSRFSGSGSGTEFTLTISSLEAEDAATYYCQQWSSYPLTFGQGTKLEIKGGGSGGGGEVQLVESGGGLVQPGGSLRLSCAASGFTFSTYAMNWVRQAPGKGLEWVGRIRSKYNNYATYYADSVKDRFTISRDDSKNSLYLQMNSLKTEDTAVYYCVRHGNFGNSYVSWFAYWGQGTLVTVSSGGCGGGEVAALEKEVAALEKEVAALEKEVAALEKGGGDKTHTCPPCPAPEAAGGPSVFLFPPKPKDTLMISRTPEVTCVVVDVSHEDPEVKFNWYVDGVEVHNAKTKPREEQYNSTYRVVSVLTVLHQDWLNGKEYKCKVSNKALPAPIEKTISKAKGQPREPQVYTLPPSREEMTKNQVSLWCLVKGFYPSDIAVEWESNGQPENNYKTTPPVLDSDGSFFLYSKLTVDKSRWQQGNVFSCSVMHEALHNHYTQKSLSLSPGK
chain 2: QAVVTQEPSLTVSPGGTVTLTCRSSTGAVTTSNYANWVQQKPGQAPRGLIGGTNKRAPWTPARFSGSLLGGKAALTITGAQAEDEADYYCALWYSNLWVFGGGTKLTVLGGGGSGGGGQVQLVQSGAEVKKPGASVKVSCKASGYTFTGSWMNWVRQAPGQGLEWIGRIYPGDGETNYNGKFKDRVTITADKSTSTAYMELSSLRSEDTAVYYCARIYGNNVYFDVWGQGTTVTVSSGGCGGGKVAALKEKVAALKEKVAALKEKVAALKE
chain 3: not shown
notes: also called DART-2 with Fc
In the case of B4, the Kd in experiment [1] is 12 nM; in experiment [2], 2.2 nM; in experiment [3], 23 nM; in experiment [4], 26 nM. For the same molecule, the off-rate constant (koff) in experiment [1] was determined as 0.0028 s⁻¹; in experiment [2], 0.0009 s⁻¹; in experiment [3] it was 0.0035 s⁻¹; in experiment [4] it was 0.0034 s⁻¹. Also, the kon in experiment [1] is 230000 M⁻¹ s⁻¹; in experiment [2], 420000 M⁻¹ s⁻¹; in experiment [3] it was 150000 M⁻¹ s⁻¹; in experiment [4], 130000 M⁻¹ s⁻¹.

B5: gpA33 × CD3 bi-specific monovalent diabody (DART-2) (bispecific antibody)
chain 1: QAVVTQEPSLTVSPGGTVTLTCRSSTGAVTTSNYANWVQQKPGQAPRGLIGGTNKRAPWTPARFSGSLLGGKAALTITGAQAEDEADYYCALWYSNLWVFGGGTKLTVLGGGGSGGGGQVQLVQSGAEVKKPGASVKVSCKASGYTFTGSWMNWVRQAPGQGLEWIGRIYPGDGETNYNGKFKDRVTITADKSTSTAYMELSSLRSEDTAVYYCARIYGNNVYFDVWGQGTTVTVSSGGCGGGEVAALEKEVAALEKEVAALEKEVAALEK
chain 2: DIQLTQSPSFLSASVGDRVTITCSARSSISFMYWYQQKPGKAPKLLIYDTSNLASGVPSRFSGSGSGTEFTLTISSLEAEDAATYYCQQWSSYPLTFGQGTKLEIKGGGSGGGGEVQLVESGGGLVQPGGSLRLSCAASGFTFSTYAMNWVRQAPGKGLEWVGRIRSKYNNYATYYADSVKDRFTISRDDSKNSLYLQMNSLKTEDTAVYYCVRHGNFGNSYVSWFAYWGQGTLVTVSSGGCGGGKVAALKEKVAALKEKVAALKEKVAALKE
For the molecule B5, in experiment [5], the “EC50 - CTL Activity, Colo205 Target Cells, LDH Assay, Human PBMC” value amounted to 4.09 ng/mL and the “EC50 - CTL Activity, Colo205 Target Cells, Luciferase Assay, Human PBMC” value turned out to be 2.73 ng/mL. In experiment [6], the “EC50 - CTL Activity, Colo205 Target Cells, LDH Assay, Cyno PBMC” value came to 3.81 ng/mL and the “EC50 - CTL Activity, Colo205 Target Cells, Luciferase Assay, Cyno PBMC” value worked out at 1.55 ng/mL.

B6: gpA33 × CD3 bi-specific monovalent diabody having an Albumin-Binding Domain (DART-2 w/ABD) (bispecific antibody)
chain 1: QAVVTQEPSLTVSPGGTVTLTCRSSTGAVTTSNYANWVQQKPGQAPRGLIGGTNKRAPWTPARFSGSLLGGKAALTITGAQAEDEADYYCALWYSNLWVFGGGTKLTVLGGGGSGGGGQVQLVQSGAEVKKPGASVKVSCKASGYTFTGSWMNWVRQAPGQGLEWIGRIYPGDGETNYNGKFKDRVTITADKSTSTAYMELSSLRSEDTAVYYCARIYGNNVYFDVWGQGTTVTVSSGGCGGGEVAALEKEVAALEKEVAALEKEVAALEKGGGSLAQAKEAAIRELDKYGVSDYYKNLIDNAKSAEGVKALIDEILAALP
chain 2: DIQLTQSPSFLSASVGDRVTITCSARSSISFMYWYQQKPGKAPKLLIYDTSNLASGVPSRFSGSGSGTEFTLTISSLEAEDAATYYCQQWSSYPLTFGQGTKLEIKGGGSGGGGEVQLVESGGGLVQPGGSLRLSCAASGFTFSTYAMNWVRQAPGKGLEWVGRIRSKYNNYATYYADSVKDRFTISRDDSKNSLYLQMNSLKTEDTAVYYCVRHGNFGNSYVSWFAYWGQGTLVTVSSGGCGGGKVAALKEKVAALKEKVAALKEKVAALKE
With B6, in experiment [5], the “EC50 - CTL Activity, Colo205 Target Cells, LDH Assay, Human PBMC” value was 5.52 ng/mL and the “EC50 - CTL Activity, Colo205 Target Cells, Luciferase Assay, Human PBMC” value worked out at 3.07 ng/mL. Moreover, in experiment [6], the “EC50 - CTL Activity, Colo205 Target Cells, LDH Assay, Cyno PBMC” value was 4.63 ng/mL and the “EC50 - CTL Activity, Colo205 Target Cells, Luciferase Assay, Cyno PBMC” value was 1.63 ng/mL.
